The results in this text go back to publication PMC12440814.

One series addresses T1, CtTrl1-LIG K148N (Chaetomium thermophilum, UniProt G0S6G2 1-414, K148N).
T1 sequence: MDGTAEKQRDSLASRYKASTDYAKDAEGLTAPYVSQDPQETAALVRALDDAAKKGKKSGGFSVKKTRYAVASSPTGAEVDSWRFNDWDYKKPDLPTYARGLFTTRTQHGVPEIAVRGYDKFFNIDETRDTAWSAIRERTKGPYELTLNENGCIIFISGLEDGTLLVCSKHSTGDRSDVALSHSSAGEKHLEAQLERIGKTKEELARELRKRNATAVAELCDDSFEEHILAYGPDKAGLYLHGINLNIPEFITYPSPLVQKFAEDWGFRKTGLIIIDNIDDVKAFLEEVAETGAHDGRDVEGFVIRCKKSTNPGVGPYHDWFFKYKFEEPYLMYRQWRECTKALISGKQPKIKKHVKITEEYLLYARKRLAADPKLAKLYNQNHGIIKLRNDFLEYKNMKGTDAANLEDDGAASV
Nature of the series: EMSA.

The target in series [1] is T2, CtTrl1-LIG WT (Chaetomium thermophilum, UniProt G0S6G2 1-414).
T2 sequence: T1 sequence with N148K
Put plainly: EMSA.

For another series, the target named is T3, CtTrl1-LIG S171A (Chaetomium thermophilum, UniProt G0S6G2 1-414, S171A).
T3 sequence: T1 sequence with N148K, S171A
Nature of the series: EMSA.

The next series has as its target T4, CtTrl1-LIG H170A (Chaetomium thermophilum, UniProt G0S6G2 1-414, H170A).
T4 sequence: T1 sequence with N148K, H170A
Nature of the series: EMSA.

In series [2] the target is T2, CtTrl1-LIG WT. Put plainly: EMSA. The source holds these as a separate data set.
The target in series [3] is T2, CtTrl1-LIG WT. Put plainly: X-ray crystallography.

Substitutions are numbered along the chain they refer to.

As to AUCUGGAUUUUGCCAGACUGAAG (structured_RNA, 5'-phosphate; terminal phosphate at 3' end nucleotide (2'-P/3'-OH)) [ASL-4U], the binding result in the series with CtTrl1-LIG K148N, in the series with CtTrl1-LIG WT [1], in the series with CtTrl1-LIG S171A and with CtTrl1-LIG H170A was “binds” in each case.

CUCUGGAUUUUGCCAGACUGAAG (structured_RNA, 5'-phosphate and terminal phosphate presumed as in ASL-4U) [ASL-4U-5C]: the binding result in the series with CtTrl1-LIG WT [2] is “binds”.

B1: 3'exon-7nt (dsRNA)
RNA 1: AUCUGGA
RNA 2: AUCUGGA
modifications: 5'-phosphate; one strand end 5'-adenylylated (AppRNA) in the crystal
Regarding B1, in the series with CtTrl1-LIG WT [3], the binding result is reported as “binds”.
